According to patent US20220033450A1, “VIRALLY EXPRESSED INHIBITORS OF PDZ DOMAINS, SUCH AS PICK1 AND USES THEREOF” (University of Copenhagen, priority 2018, published 2022):

Target: Protein Interacting with C Kinase-1 (PICK1), Q9EP80
Assay: FP competition, PICK1 0.15 µM, tracer PEG4 linked dimeric C5 20 nM

Chain of Protein Interacting with C Kinase-1 (PICK1), Q9EP80 (Q9EP80 whole entry): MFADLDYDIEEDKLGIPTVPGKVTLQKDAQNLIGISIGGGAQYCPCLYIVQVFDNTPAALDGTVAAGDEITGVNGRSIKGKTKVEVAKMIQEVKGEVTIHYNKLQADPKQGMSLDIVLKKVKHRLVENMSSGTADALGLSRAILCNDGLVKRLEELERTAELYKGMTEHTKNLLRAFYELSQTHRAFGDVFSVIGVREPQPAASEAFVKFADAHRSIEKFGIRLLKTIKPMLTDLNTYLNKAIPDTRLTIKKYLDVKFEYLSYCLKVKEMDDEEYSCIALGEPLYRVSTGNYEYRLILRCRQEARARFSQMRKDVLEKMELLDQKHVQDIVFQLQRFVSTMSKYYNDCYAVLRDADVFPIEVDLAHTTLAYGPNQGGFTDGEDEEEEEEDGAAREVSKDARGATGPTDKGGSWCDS

- fold increase in affinity over DATC5: 16 fold
B1: SSO10a-GS4-HWLKV (designed binder)
peptide: GEELLEDIRKFNEMRKNMDQLKEKINSVLSIRQGGGGSHWLKV
modifications: not checked
